Results reported in patent US20260266848A1, “COMPOSITIONS AND METHODS FOR DIAGNOSING AND TREATING DYSTONIA” (Duke University, priority 2023, published 2026).

Legend:
WT MEF EVs = experiment: Quantitative LC-MS/MS proteomics of EVs from ISRIB-treated WT MEF cultures; format: cell-based, mouse; design: key to ISRIB and DYT Parallel Direction / ISRIB and DYT Parallel Direction, Ctdsp1 / ISRIB and DYT Parallel Direction, Pcdh19 / ISRIB and DYT Parallel Direction, Tspan7 / ISRIB and DYT Parallel Direction, Myo1e / ISRIB and DYT Parallel Direction, Plpp3 / ISRIB and DYT Parallel Direction, Sh3bp4 / ISRIB and DYT Parallel Direction, Dnajc7 / ISRIB and DYT Parallel Direction, Drg1 / ISRIB and DYT Parallel Direction, Maea: YES = protein abundance effect similar to DYT/WT; conditions: EV protein abundance; for WT + ISRIB/WT Cohen's d: ISRIB-treated WT vs WT; for ISRIB and DYT Parallel Direction: WT + ISRIB vs WT, direction compared with DYT/WT
DYT-TOR1A MEF EVs = experiment: Quantitative LC-MS/MS proteomics of EVs from drug-treated DYT-TOR1A MEF cultures (ritonavir, salubrinal); format: cell-based, mouse; design: key to RTV Corrective Direction / RTV Corrective Direction, Grwd1 / RTV Corrective Direction, Srrm2 / RTV Corrective Direction, Rbm17 / RTV Corrective Direction, Dcaf8 / RTV Corrective Direction, Edil3 / RTV Corrective Direction, Timp3 / RTV Corrective Direction, Heatr3 / RTV Corrective Direction, Brd4 / RTV Corrective Direction, P3h4 / RTV Corrective Direction, Pacsin3 / RTV Corrective Direction, Naa50 / RTV Corrective Direction, Lpar6 / RTV Corrective Direction, Ndrg1 / RTV Corrective Direction, Kntc1 / RTV Corrective Direction, Cdk11b / RTV Corrective Direction, Sumo1 / RTV Corrective Direction, Lsm4 / RTV Corrective Direction, Hmga2 / RTV Corrective Direction, Cstf1 / RTV Corrective Direction, Tes / RTV Corrective Direction, Sbno1 / RTV Corrective Direction, Unc119b / RTV Corrective Direction, Cfdp1 / RTV Corrective Direction, Sec61b: YES = protein abundance effect opposite to DYT/WT; conditions: EV protein abundance; for RTV Corrective Direction: DYT + RTV (ritonavir) vs DYT, direction compared with DYT/WT; for DYT + RTV/DYT Cohen's d: ritonavir (RTV)-treated DYT vs DYT

Row | Molecule | WT + ISRIB/WT Cohen's d (WT MEF EVs) | ISRIB and DYT Parallel Direction (WT MEF EVs) | RTV Corrective Direction (DYT-TOR1A MEF EVs) | DYT + RTV/DYT Cohen's d (DYT-TOR1A MEF EVs)
1 | Wars (protein, UniProt P32921 1-481, looked up) Tryptophan--tRNA ligase, …: MADMPSGESCTSPLELFNSIATQGELVRSLKAGNAPKDEIDSAVKMLLSLKMSYKAAMGEEYKAGCPPGNPTAGRNCDSDATKASEDFVDPWTVRTSSAKGIDYDKLIVQFGSSKIDKELINRIERATGQRPHRFLRRGIFFSHRDMNQILDAYENKKPFYLYTGRGPSSEAMHLGHLVPFIFTKWLQDVFNVPLVIQMSDDEKYLWKDLTLEQAYSYTVENAKDIIACGFDINKTFIFSDLEYMGQSPGFYRNVVKIQKHVTFNQVKGIFGFTDSDCIGKISFPAVQAAPSFSNSFPKIFRDRTDIQCLIPCAIDQDPYFRMTRDVAPRIGHPKPALLHSTFFPALQGAQTKMSASDPNSSIFLTDTAKQIKSKVNKHAFSGGRDTVEEHRQFGGNCEVDVSFMYLTFFLEDDDRLEQIRKDYTSGAMLTGELKKTLIDVLQPLIAEHQARRKAVTEETVKEFMTPRQLSFHFQCFCFDT | −1.03 | YES | YES | 4.38
2 | Megf10 (protein, UniProt Q6DIB5 26-1147, looked up) Multiple epidermal growth …: LNLEDPNVCSHWESYSVTVQESYPHPFDQIYYTSCTDILNWFKCTRHRISYRTAYRHGEKTMYRRKSQCCPGFYESRDMCVPHCADKCVHGRCIAPNTCQCEPGWGGTNCSSACDGDHWGPHCSSRCQCKNRALCNPITGACHCAAGYRGWRCEDRCEQGTYGNDCHQRCQCQNGATCDHITGECRCSPGYTGAFCEDLCPPGKHGPHCEQRCPCQNGGVCHHVTGECSCPSGWMGTVCGQPCPEGRFGKNCSQECQCHNGGTCDAATGQCHCSPGYTGERCQDECPVGSYGVRCAEACRCVNGGKCYHVSGTCLCEAGFSGELCEARLCPEGLYGIKCDKRCPCHLDNTHSCHPMSGECGCKPGWSGLYCNETCSPGFYGEACQQICSCQNGADCDSVTGRCACAPGFKGTDCSTPCPLGRYGINCSSRCGCKNDAVCSPVDGSCICKAGWHGVDCSIRCPSGTWGFGCNLTCQCLNGGACNTLDGTCTCAPGWRGAKCEFPCQDGTYGLNCAERCDCSHADGCHPTTGHCRCLPGWSGVHCDSVCAEGRWGPNCSLPCYCKNGASCSPDDGICECAPGFRGTTCQRICSPGFYGHRCSQTCPQCVHSSGPCHHITGLCDCLPGFTGALCNEVCPSGRFGKNCAGVCTCTNNGTCNPIDRSCQCYPGWIGSDCSQPCPPAHWGPNCIHTCNCHNGAFCSAYDGECKCTPGWTGLYCTQRCPLGFYGKDCALICQCQNGADCDHISGQCTCRTGFMGRHCEQKCPAGTYGYGCRQICDCLNNSTCDHITGTCYCSPGWKGARCDQAGVIIVGNLNSLSRTSTALPADSYQIGAIAGIVVLVLVVLFLLALFIIYRHKQKRKESSMPAVTYTPAMRVINADYTIAETLPHSNGGNANSHYFTNPSYHTLSQCATSPHVNNRDRMTIAKSKNNQLFVNLKNVNPGKRGTLVDCTGTLPADWKQGGYLNELGAFGLDRSYMGKSLKDLGKNSEYNSSTCSLSSSENPYATIKDPPALLPKSSECGYVEMKSPARRDSPYAEINNSTPANRNVYEVEPTVSVVQGVFSNSGHVTQDPYDLPKNSHIPCHYDLLPVRDSSSSPKREDGGGSNSTSSNSTSSSSSSSE | 1.37 | YES | YES | −2.80
3 | Vps26b (protein, UniProt Q8C0E2 1-336, looked up) Vacuolar protein …: MSFFGFGQSVEVEILLNDAESRKRAEHKTEDGKKEKYFLFYDGETVSGKVSLSLKNPNKRLEHQGIKIEFIGQIELYYDRGNHHEFVSLVKDLARPGEITQSQAFDFEFTHVEKPYESYTGQNVKLRYFLRATISRRLNDVVKEMDIVVHTLSTYPELNSSIKMEVGIEDCLHIEFEYNKSKYHLKDVIVGKIYFLLVRIKIKHMEIDIIKRETTGTGPNVYHENDTIAKYEIMDGAPVRGESIPIRLFLAGYELTPTMRDINKKFSVRYYLNLVLIDEEERRYFKQQEVVLWRKGDIVRKSMSHQAAIASQRFEGTTSLGEVRTPGQLSDNNSRQ | −1.43 | YES | YES | 3.01
4 | Copg2 (protein, UniProt Q9QXK3 1-871, looked up) Coatomer subunit gamma-2: MIKKFDKKDEESGSGSNPFQHLEKSAVLQEARIFNETPINPRRCLHILTKILYLLNQGEHFGTMEATEAFFAMTRLFQSNDQTLRRMCYLTIKEMATISEDVIIVTSSLTKDMTGKEDVYRGPAIRALCRITDGTMLQAVERYMKQAIVDKVSSVASSALVSSLHMMKISYDVVKRWINEAQEAASSDNIMVQYHALGVLYHLRKNDRLAVSKMLNKFTKSGLKSQFAYCMLIRIASRLLKESEDGHESPLFDFIESCLRNKHEMVIYEAASAIIHLPNCTARELAPAVSVLQLFCSSPKPALRYAAVRTLNKVAMKHPSAVTACNLDLENLITDSNRSIATLAITTLLKTGSESSVDRLMKQISSFVSEISDEFKVVVVQAISALCHKYPRKHSVMMTFLSNMLRDDGGFEYKKAIVDCIISIVEENPESKEAGLAHLCEFIEDCEHTVLATKILHLLGKEGPRTPVPSKYIRFIFNRVVLENEAVRAAAVSALAKFGAQNESLLPSILVLLQRCMMDTDDEVRDRATFYLNVLQQRQMALNATYIFNGLTVSIPGMEKALHQYTLEPSEKPFDMKSIPLAMAPVFEQKSEITLVTPKPEKLAPSRQDIFQEQLAAIPEFMNLGPLFKSSEPVQLTEAETEYFVRCVKHMFTDHIVFQFDCTNTLNDQLLEKVTVQMEPSDSYEVLCCIPAPSLPYNQPGICYTLVRLPDEDPTAVAGTFSCTMKFTVRDCDPNTGVPDEDGYDDEYVLEDLEVTVSDHIQKILKPNFAAAWEEVGDAFEKEETFALSSTKTLEEAVNNIITFLGMQPCERSDKVPENKNSHSLYLAGVYRGGYDLLVRSRLALADGVTMQVTVRSKERTPVDVILASVG | −0.44 | YES | YES | 3.05
5 | Picalm (protein, UniProt Q7M6Y3 2-660, looked up) Phosphatidylinositol-binding …: SGQSLTDRITAAQHSVTGSAVSKTVCKATTHEIMGPKKKHLDYLIQCTNEMNVNIPQLADSLFERTTNSSWVVVFKSLITTHHLMVYGNERFIQYLASRNTLFNLSNFLDKSGLQGYDMSTFIRRYSRYLNEKAVSYRQVAFDFTKVKRGADGVMRTMNTEKLLKTVPIIQNQMDALLDFNVNSNELTNGVINAAFMLLFKDAIRLFAAYNEGIINLLEKYFDMKKNQCKEGLDIYKKFLTRMTRISEFLKVAEQVGIDRGDIPDLSQAPSSLLDALEQHLASLEGKKIKDSTAASRATTLSNAVSSLASTGLSLTKVDEREKQAALEEEQARLKALKEQRLKELAKKPHTSLTTAASPVSTSAGGIMTAPAIDIFSTPSSSNSTSKLPNDLLDLQQPTFHPSVHAMSAAPQGASTWGDPFSATLDAVEDAIPSLNPFLTKSSGDVHLPIASDVSTFTTRTPTHEMFVGFSPSPVAQPHSSAGLNVDFESVFGNKSTNVAVDSGGFDELGGLLKPTVASQNQSLPVAKLPPNKLVSDDLDSSLANLVGNLGIGNGTTKNDVSWSQPGEKKLTGGSNWQPKVAPTTAWSAATMNGMHFPQYAPPVMAYPATTPTGMIGYGIPPQMGSVPVMTQPTLIYSQPVMRPPNPFGPVSGAQIQFM | −1.01 | YES | YES | 2.85
